According to patent publication EP3470428A1:
Blank lines part the entries; values can stand above or below the binder they belong to.

Assays:
[1] = biological target: human CD137-Fc chimeric protein (human) (UniProt Q07011); test: SPR (Biacore T200); CD137-Fc captured by anti-human Fc
[2] = biological target: human PD-L1-Fc chimeric protein (human) (UniProt Q9NZQ7); test: SPR (Biacore T200); PD-L1-Fc captured by anti-human Fc

human CD137-Fc chimeric protein (human), sequence (Q07011 24-186, change not shown): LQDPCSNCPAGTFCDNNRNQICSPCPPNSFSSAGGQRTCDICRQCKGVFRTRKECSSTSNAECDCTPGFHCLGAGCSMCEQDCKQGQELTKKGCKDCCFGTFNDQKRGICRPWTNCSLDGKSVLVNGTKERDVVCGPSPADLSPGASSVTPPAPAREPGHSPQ

fold improvement of affinity against PRO885 [1]: > 200 fold
B1: PRO1124: 38-02-A04 sc06 Full scDb-i/33_03_G02 sc01 scDb-o (bispecific antibody)
chain: DIQMTQSPSSLSASVGDRVTITCQASQSINDYLAWYQQKPGKAPKLLIYKASTLASGVPSRFSGSGSGTDFTLTISSLQPEDFATYYCQQGYIITDIDNVFGTGTKVTVLGGGGGSQVQLQESGPGLVKPSETLSLTCKASGFSFSNSYWICWVRQPPGKGLEWIGCTFVGSSDSTYYANWAKGRVTISKDSSKNQVSLKLSSVTAADTAVYFCARHPSDAVYGYANNLWGQGTLVTVSSGGGGSGGGGSGGGGSGGGGSLQMTQSPSSLSASVGDRVTITCQASQSINNVLAWYQQKPGKPPKLLIYRASTLASGVPSRFSGSGSGTDFTLTISSLQPEDFATYYCQSSYGNYGDFGTGTKVTVLGGGGGSQVQLQESGPGLVKPSETLSLTCKVSGFSFSSGYDMCWIRQPPGKGLEWIGCVVAGSVDITYYASWAKGRVTISVDSSKNQFSLKLSSVTAADTAVYYCARKDAYSDAFNLWGQGTLVTVSS

fold improvement in affinity against the CDR graft (PRO885) [2]: 20 fold
B2: PRO1126: 38-02-A04 sc01 scDb-i/33_03_G02 sc03 Full scDb-o (bispecific antibody)
chain: DFQLTQSPSSLSASVGDRVTITCQASQSINDYLAWYQQKPGKSPKLLIYKASTLASGVPSRFSGSGSGTDFTLTISSLQPEDFATYYCQQGYIITDIDNVFGTGTKVTVLGGGGGSQVQLQESGPGLVKPSETLSLTCKVSGFSFSNSYWICWIRQPPGKGLEWIGCTFVGSSDSTYYANWAKGRVTISVDSSKNQFSLKLSSVTAADTAVYYCARHPSDAVYGYANNLWGQGTLVTVSSGGGGSGGGGSGGGGSGGGGSIQMTQSPSSLSASVGDRVTITCQASQSINNVLAWYQQKPGKAPKLLIYRASTLASGVPSRFSGSGSGTDFTLTISSLQPEDFATYYCQSSYGNYGDFGTGTKVTVLGGGGGSQSQLQESGPGLVKPSETLSLTCKASGFSFSSGYDMCWVRQPPGKGLEWIACVVAGSVDITYYASWAKGRVTISKDSSKNQVSLKLSSVTAADTAVYFCARKDAYSDAFNLWGQGTLVTVSS
